Columns and labels:
[1] = test system: HeLa Kyoto; test: thermal stability score vs G1/S (z-score of summed log2 fold changes over temperatures); higher = more thermally stable than in G1/S
[2] = test system: HeLa Kyoto; test: solubility in G1/S (NP-40 vs SDS abundance) (log2 ratio); higher = more soluble; details: cell cycle stage: G1/S
[3] = test system: HeLa Kyoto; test: melting temperature (median over replicates), in situ; higher = more thermally stable
[4] = test system: HeLa Kyoto; test: solubility change mitosis vs G1/S (difference of NP-40 vs SDS log2 ratios) (log2 ratio difference); higher = more soluble in mitosis
[5] = cell cycle stage: early G1 (4.5 h after nocodazole release)
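Wherever melting temperature (median over replicates), in situ is given: HeLa Kyoto cells synchronized by double thymidine or nocodazole block, proteins quantified by TMT10plex mass spectrometry, three independent biological replicates.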
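Wherever solubility change mitosis vs G1/S (difference of NP-40 vs SDS log2 ratios) is given: synchronized HeLa Kyoto cells (double thymidine block for G1/S, nocodazole release for mitosis), protein amounts in NP-40 versus SDS lysates quantified by mass spectrometry, three biological replicates.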
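Wherever solubility in G1/S (NP-40 vs SDS abundance) is given: HeLa Kyoto cells arrested at G1/S by double thymidine block, proteins quantified by TMT10plex mass spectrometry in mild NP-40 versus SDS extracts, three biological replicates.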
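Wherever thermal stability score vs G1/S (z-score of summed log2 fold changes over temperatures) is given: synchronized HeLa Kyoto cells, proteins quantified by TMT10plex mass spectrometry, three biological replicates, mitosis taken 0.5 h after nocodazole release, G1/S directly after double thymidine block.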

Sequence	thermal stability score [1, 5]	thermal stability score ([1]; cell cycle stage: mitosis)	solubility in G1/S (log2) [2]	melting temperature ([3]; cell cycle stage: G1/S) [°C]	melting temperature ([3]; cell cycle stage: mitosis) [°C]	solubility change mitosis (log2) [4]
MADTLPSEFDVIVIGTGLPESIIAAACSRSGRRVLHVDSRSYYGGNWASFSFSGLLSWLKEYQENSDIVSDSPVWQDQILENEEAIALSRKDKTIQHVEVFCYASQDLHEDVEEAGALQKNHALVTSANSTEAADSAFLPTEDESLSTMSCEMLTEQTPSSDPENALEVNGAEVTGEKENHCDDKTCVPSTSAEDMSENVPIAEDTTEQPKKNRITYSQIIKEGRRFNIDLVSKLLYSRGLLIDLLIKSNVSRYAEFKNITRILAFREGRVEQVPCSRADVFNSKQLTMVEKRMLMKFLTFCMEYEKYPDEYKGYEEITFYEYLKTQKLTPNLQYIVMHSIAMTSETASSTIDGLKATKNFLHCLGRYGNTPFLFPLYGQGELPQCFCRMCAVFGGIYCLRHSVQCLVVDKESRKCKAIIDQFGQRIISEHFLVEDSYFPENMCSRVQYRQISRAVLITDRSVLKTDSDQQISILTVPAEEPGTFAVRVIELCSSTMTCMKGTYLVHLTCTSSKTAREDLESVVQKLFVPYTEMEIENEQVEKPRILWALYFNMRDSSDISRSCYNDLPSNVYVCSGPDCGLGNDNAVKQAETLFQEICPNEDFCPPPPNPEDIILDGDSLQPEASESSAIPEANSETFKESTNLGNLEESSE [CHM]	-0.484	-1.2	-0.115	52.9	53.1	-0.191
MAEAAAAAGGTGLGAGASYGSAADRDRDPDPDRAGRRLRVLSGHLLGRPREALSTNECKARRAASAATAAPTATPAAQESGTIPKKRQEVMKWNGWGYNDSKFIFNKKGQIELTGKRYPLSGMGLPTFKEWIQNTLGVNVEHKTTSKASLNPSDTPPSVVNEDFLHDLKETNISYSQEADDRVFRAHGHCLHEIFLLREGMFERIPDIVLWPTCHDDVVKIVNLACKYNLCIIPIGGGTSVSYGLMCPADETRTIISLDTSQMNRILWVDENNLTAHVEAGITGQELERQLKESGYCTGHEPDSLEFSTVGGWVSTRASGMKKNIYGNIEDLVVHIKMVTPRGIIEKSCQGPRMSTGPDIHHFIMGSEGTLGVITEATIKIRPVPEYQKYGSVAFPNFEQGVACLREIAKQRCAPASIRLMDNKQFQFGHALKPQVSSIFTSFLDGLKKFYITKFKGFDPNQLSVATLLFEGDREKVLQHEKQVYDIAAKFGGLAAGEDNGQRGYLLTYVIAYIRDLALEYYVLGESFETSAPWDRVVDLCRNVKERITRECKEKGVQFAPFSTCRVTQTYDAGACIYFYFAFNYRGISDPLTVFEQTEAAAREEILANGGSLSHHHGVGKLRKQWLKESISDVGFGMLKSVKEYVDPNNIFGNRNLL [AGPS]	0.703	1.37	-0.0393	52.8	52.9	-0.139
MAEAEGESLESWLNKATNPSNRQEDWEYIIGFCDQINKELEGPQIAVRLLAHKIQSPQEWEALQALTVLEACMKNCGRRFHNEVGKFRFLNELIKVVSPKYLGDRVSEKVKTKVIELLYSWTMALPEEAKIKDAYHMLKRQGIVQSDPPIPVDRTLIPSPPPRPKNPVFDDEEKSKLLAKLLKSKNPDDLQEANKLIKSMVKEDEARIQKVTKRLHTLEEVNNNVRLLSEMLLHYSQEDSSDGDRELMKELFDQCENKRRTLFKLASETEDNDNSLGDILQASDNLSRVINSYKTIIEGQVINGEVATLTLPDSEGNSQCSNQGTLIDLAELDTTNSLSSVLAPAPTPPSSGIPILPPPPQASGPPRSRSSSQAEATLGPSSTSNALSWLDEELLCLGLADPAPNVPPKESAGNSQWHLLQREQSDLDFFSPRPGTAACGASDAPLLQPSAPSSSSSQAPLPPPFPAPVVPASVPAPSAGSSLFSTGVAPALAPKVEPAVPGHHGLALGNSALHHLDALDQLLEEAKVTSGLVKPTTSPLIPTTTPARPLLPFSTGPGSPLFQPLSFQSQGSPPKGPELSLASIHVPLESIKPSSALPVTAYDKNGFRILFHFAKECPPGRPDVLVVVVSMLNTAPLPVKSIVLQAAVPKSMKVKLQPPSGTELSPFSPIQPPAAITQVMLLANPLKEKVRLRYKLTFALGEQLSTEVGEVDQFPPVEQWGNL [GGA3]	1.01	0.468	0.445	50.1	50.7	-0.218
MAEAGDAALSVAEWLRALHLEQYTGLFEQHGLVWATECQGLSDTRLMDMGMLLPGHRRRILAGLLRAHTSPAPAPRPTPRPVPMKRHIFRSPPVPATPPEPLPTTTEDEGLPAAPPIPPRRSCLPPTCFTTPSTAAPDPVLPPLPAKRHLAELSVPPVPPRTGPPRLLVSLPTKEEESLLPSLSSPPQPQSEEPLSTLPQGPPQPPSPPPCPPEIPPKPVRLFPEFDDSDYDEVPEEGPGAPARVMTKKEEPPPSRVPRAVRVASLLSEGEELSGDDQGDEEEDDHAYEGVPNGGWHTSSLSLSLPSTIAAPHPMDGPPGGSTPVTPVIKAGWLDKNPPQGSYIYQKRWVRLDTDHLRYFDSNKDAYSKRFISVACISHVAAIGDQKFEVITNNRTFAFRAESDVERKEWMQALQQAMAEQRARARLSSAYLLGVPGSEQPDRAGSLELRGFKNKLYVAVVGDKVQLYKNLEEYHLGIGITFIDMSVGNVKEVDRRSFDLTTPYRIFSFSADSELEKEQWLEAMQGAIAEALSTSEVAERIWAAAPNRFCADCGAPQPDWASINLCVVICKRCAGEHRGLGAGVSKVRSLKMDRKVWTETLIELFLQLGNGAGNRFWAANVPPSEALQPSSSPSTRRCHLEAKYREGKYRRYHPLFGNQEELDKALCAAVTTTDLAETQALLGCGAGINCFSGDPEAPTPLALAEQAGQTLQMEFLRNNRTTEVPRLDSMKPLEKHYSVVLPTVSHSGFLYKTASAGKLLQDRRAREEFSRRWCVLGDGVLSYFENERAVTPNGEIRASEIVCLAVPPPDTHGFEHTFEVYTEGERLYLFGLESAEQAHEWVKCIAKAFVPPLAEDLLARDFERLGRLPYKAGLSLQRAQEGWFSLSGSELRAVFPEGPCEEPLQLRKLQELSIQGDSENQVLVLVERRRTLYIQGERRLDFMGWLGAIQKAAASMGDTLSEQQLGDSDIPVIVYRCVDYITQCGLTSEGIYRKCGQTSKTQRLLESLRQDARSVHLKEGEQHVDDVSSALKRFLRDLPDGLFTRAQRLTWLEASEIEDEEEKVSRYRELLVRLPPVNRATVKALISHLYCVQCFSDTNQMNVHNLAIVFGPTLFQTDGQDYKAGRVVEDLINHYVVVFSVDEEELRKQREEITAIVKMRVAGTASGTQHAGDFICTVYLEEKKAETEQHIKVPASMTAEELTLEILDRRNVGIREKDYWTCFEVNEREEAERPLHFAEKVLPILHGLGTDSHLVVKKHQAMEAMLLYLASRVGDTKHGMMKFREDRSLLGLGLPSGGFHDRYFILNSSCLRLYKEVRSQRPWSGAPETSHRPEKEWPIKSLKVYLGVKKKLRPPTCWGFTVVHETEKHEKQQWYLCCDTQMELREWFATFLFVQHDGLVWPSEPSRVSRAVPEVRLGSVSLIPLRGSENEMRRSVAAFTADPLSLLRNV [ARAP1]	0.748	0.922	-0.0593	48.7	49.1	-0.0622
MAEAVFHAPKRKRRVYETYESPLPIPFGQDHGPLKEFKIFRAEMINNNVIVRNAEDIEQLYGKGYFGKGILSRSRPSFTISDPKLVAKWKDMKTNMPIITSKRYQHSVEWAAELMRRQGQDESTVRRILKDYTKPLEHPPVKRNEEAQVHDKLNSGMVSNMEGTAGGERPSVVNGDSGKSGGVGDPREPLGCLQEGSGCHPTTESFEKSVREDASPLPHVCCCKQDALILQRGLHHEDGSQHIGLLHPGDRGPDHEYVLVEEAECAMSEREAAPNEELVQRNRLICRRNPYRIFEYLQLSLEEAFFLVYALGCLSIYYEKEPLTIVKLWKAFTVVQPTFRTTYMAYHYFRSKGWVPKVGLKYGTDLLLYRKGPPFYHASYSVIIELVDDHFEGSLRRPLSWKSLAALSRVSVNVSKELMLCYLIKPSTMTDKEMESPECMKRIKVQEVILSRWVSSRERSDQDDL [TSEN2]	0.825	0.75	0.0298	49.7	49.9	-0.177
MAECGASGSGSSGDSLDKSITLPPDEIFRNLENAKRFAIDIGGSLTKLAYYSTVQHKVAKVRSFDHSGKDTEREHEPPYEISVQEEITARLHFIKFENTYIEACLDFIKDHLVNTETKVIQATGGGAYKFKDLIEEKLRLKVDKEDVMTCLIKGCNFVLKNIPHEAFVYQKDSDPEFRFQTNHPHIFPYLLVNIGSGVSIVKVETEDRFEWVGGSSIGGGTFWGLGALLTKTKKFDELLHLASRGQHSNVDMLVRDVYGGAHQTLGLSGNLIASSFGKSATADQEFSKEDMAKSLLHMISNDIGQLACLHARLHSLDRVYFGGFFIRGHPVTMRTITYSINFFSKGEVQALFLRHEGYLGAIGAFLKGAEQDNPNQYSWGENYAGSSGLMSASPELGPAQRARSGTFDLLEMDRLERPLVDLPLLLDPPSYVPDTVDLTDDALARKYWLTCFEEALDGVVKRAVASQPDSVDAAERAEKFRQKYWNKLQTLRQQPFAYGTLTVRSLLDTREHCLNEFNFPDPYSKVKQRENGVALRCFPGVVRSLDALGWEERQLALVKGLLAGNVFDWGAKAVSAVLESDPYFGFEEAKRKLQERPWLVDSYSEWLQRLKGPPHKCALIFADNSGIDIILGVFPFVRELLLRGTEVILACNSGPALNDVTHSESLIVAERIAGMDPVVHSALQEERLLLVQTGSSSPCLDLSRLDKGLAALVRERGADLVVIEGMGRAVHTNYHAALRCESLKLAVIKNAWLAERLGGRLFSVIFKYEVPAE [PANK4]	0.0566	-0.284	-0.125	52	51.7	-0.0425
MAEEEVAKLEKHLMLLRQEYVKLQKKLAETEKRCALLAAQANKESSSESFISRLLAIVADLYEQEQYSDLKIKVGDRHISAHKFVLAARSDSWSLANLSSTKELDLSDANPEVTMTMLRWIYTDELEFREDDVFLTELMKLANRFQLQLLRERCEKGVMSLVNVRNCIRFYQTAEELNASTLMNYCAEIIASHWDDLRKEDFSSMSAQLLYKMIKSKTEYPLHKAIKVEREDVVFLYLIEMDSQLPGKLNEADHNGDLALDLALSRRLESIATTLVSHKADVDMVDKSGWSLLHKGIQRGDLFAATFLIKNGAFVNAATLGAQETPLHLVALYSSKKHSADVMSEMAQIAEALLQAGANPNMQDSKGRTPLHVSIMAGNEYVFSQLLQCKQLDLELKDHEGSTALWLAVQHITVSSDQSVNPFEDVPVVNGTSFDENSFAARLIQRGSHTDAPDTATGNCLLQRAAGAGNEAAALFLATNGAHVNHRNKWGETPLHTACRHGLANLTAELLQQGANPNLQTEEALPLPKEAASLTSLADSVHLQTPLHMAIAYNHPDVVSVILEQKANALHATNNLQIIPDFSLKDSRDQTVLGLALWTGMHTIAAQLLGSGAAINDTMSDGQTLLHMAIQRQDSKSALFLLEHQADINVRTQDGETALQLAIRNQLPLVVDAICTRGADMSVPDEKGNPPLWLALANNLEDIASTLVRHGCDATCWGPGPGGCLQTLLHRAIDENNEPTACFLIRSGCDVNSPRQPGANGEGEEEARDGQTPLHLAASWGLEETVQCLLEFGANVNAQDAEGRTPIHVAISSQHGVIIQLLVSHPDIHLNVRDRQGLTPFACAMTFKNNKSAEAILKRESGAAEQVDNKGRNFLHVAVQNSDIESVLFLISVHANVNSRVQDASKLTPLHLAVQAGSEIIVRNLLLAGAKVNELTKHRQTALHLAAQQDLPTICSVLLENGVDFAAVDENGNNALHLAVMHGRLNNIRVLLTECTVDAEAFNLRGQSPLHILGQYGKENAAAIFDLFLECMPGYPLDKPDADGSTVLLLAYMKGNANLCRAIVRSGARLGVNNNQGVNIFNYQVATKQLLFRLLDMLSKEPPWCDGSYCYECTARFGVTTRKHHCRHCGRLLCHKCSTKEIPIIKFDLNKPVRVCNICFDVLTLGGVS [ANKFY1]	0.358	1.34	-0.0647	48.8	49.3	-0.175

Reference: the supplement of paper PMC5998384
